Consider 13 sequences from the Immune Epitope Database (IEDB).

For assay [1], the target named is HLA-A*02:01. Put plainly: IEDB peptide-MHC binding, purified MHC/competitive/fluorescence; filed as Kd, often an IC50 or EC50 that approximates it; ≥ and ≤ were set here for values at or beyond the usual limits of such assays.
In assay [2] the target is HLA-A*02:12. Described as above.
For assay [3], the target named is HLA-A*03:01. The description is as above.
The target in assay [4] is HLA-A*26:01. Described as above.
For assay [5], the target named is HLA-A*68:02. The assay is described as above.
In assay [6] the target is HLA-A*69:01. The description is as above.
Assay [7] concerns the target HLA-B*15:01. Described as above.
Assay [8] concerns the target HLA-B*18:01. The assay is described as above.
Assay [9] concerns the target HLA-B*27:03. Described as above.
Assay [10] has as its target HLA-B*39:01. The assay is described as above.
The target of assay [11] is HLA-B*46:01. The description is as above.
The target of assay [12] is HLA-B*51:01. The description is as above.
For assay [13], the target named is HLA-B*57:01. The assay is described as above.
Assay [14] deals with HLA-C*03:03. Put plainly: IEDB peptide-MHC binding, purified MHC/direct/fluorescence; filed as Kd, often an IC50 or EC50 that approximates it; ≥ and ≤ were set here for values at or beyond the usual limits of such assays.
Assay [15] has as its target HLA-B*07:02. Kind of assay: IEDB peptide-MHC binding, purified MHC/competitive/fluorescence; filed as Kd, often an IC50 or EC50 that approximates it; ≥ and ≤ were set here for values at or beyond the usual limits of such assays.
In assay [16] the target is HLA-B*35:01. Described as above.
Assay [17] deals with HLA-A*02:19. Described as above.
The target in assay [18] is HLA-A*24:03. The assay is described as above.
Assay [19] deals with HLA-A*29:02. The assay is described as above.
Assay [20] concerns the target HLA-B*15:17. The assay is described as above. As to conditions: source organism: Vibrio parahaemolyticus AQ3810.
Assay [21] deals with HLA-A*02:03. Described as above.
Assay [22] has as its target HLA-A*02:06. The assay is described as above. As to conditions: source organism: Human immunodeficiency virus 1.
Assay [23] concerns the target HLA-A*30:01. The assay is described as above. As to conditions: source organism: Human immunodeficiency virus 1.
Assay [24] has as its target HLA-A*31:01. Described as above. The settings on record: source organism: Human immunodeficiency virus 1.
In assay [25] the target is HLA-B*08:01. The assay is described as above. The settings on record: source organism: Yersinia pestis Nepal516.
In assay [26] the target is HLA-A*02:03. Put plainly: IEDB peptide-MHC binding, purified MHC/direct/fluorescence; filed as Kd, often an IC50 or EC50 that approximates it; ≥ and ≤ were set here for values at or beyond the usual limits of such assays. The settings on record: source organism: Orthohantavirus andesense.
Assay [27] deals with HLA-A*02:11. The description is as above. The settings on record: source organism: Orthohantavirus andesense.
In assay [28] the target is HLA-A*02:12. Described as above. As to conditions: source organism: Orthohantavirus andesense.
The target in assay [29] is HLA-A*02:16. The assay is described as above. The settings on record: source organism: Orthohantavirus andesense.
For assay [30], the target named is HLA-A*02:19. The assay is described as above. The settings on record: source organism: Orthohantavirus andesense.
In assay [31] the target is HLA-A*03:01. The description is as above. As to conditions: source organism: Orthohantavirus andesense.
The target in assay [32] is HLA-A*68:02. Described as above. The settings on record: source organism: Orthohantavirus andesense.
The target in assay [33] is HLA-A*23:01. Put plainly: IEDB peptide-MHC binding, purified MHC/competitive/fluorescence; filed as Kd, often an IC50 or EC50 that approximates it; ≥ and ≤ were set here for values at or beyond the usual limits of such assays. The settings on record: source organism: Rickettsia sibirica 246.
Assay [34] concerns the target HLA-A*02:11. The description is as above. As to conditions: source organism: Entamoeba histolytica HM-1:IMSS.
The mark [35] stands for this setting: source organism: Yersinia pestis Nepal516.
The mark [36] stands for this setting: source organism: Bacillus cereus G9241.
The mark [37] stands for this setting: source organism: Vibrio parahaemolyticus AQ3810.
[38] abbreviates: source organism: Giardia lamblia ATCC 50803.
Setting [39] is: source organism: Human immunodeficiency virus 1.
The mark [40] stands for this setting: source organism: Orthohantavirus andesense.
The mark [41] stands for this setting: source organism: Entamoeba histolytica HM-1:IMSS.
Where [42] appears, read: source organism: Entamoeba dispar SAW760.

As for ILHRLAPWI, the Kd (commonly the concentration at which binding is half-saturated) in [1] (setting [35]) is 0.0473 µM; in assay [2] (setting [35]), 0.103 µM; in assay [3] (setting [35]), at least 20 µM; in assay [4] (setting [35]), at least 20 µM; in [5] (setting [35]) it was at least 20 µM; in assay [6] (setting [35]), at least 20 µM. Moreover, the Kd in [7] (setting [35]), in assay [8] (setting [35]), in assay [9] (setting [35]), in [10] (setting [35]), in assay [11] (setting [35]) and in [12] (setting [35]) was at least 20 µM throughout. This sequence also yielded a Kd in assay [13] (setting [35]) of at least 20 µM.

For RMAATAQVL, in [14] (source organism: Mycobacterium tuberculosis C), the Kd came to 0.012 µM.

IPLSILLTL: the values for the Kd in assay [15] (setting [36]), in [16] (setting [36]) and in [12] (setting [36]) were 0.028 µM, 0.0004 µM and 0.954 µM, respectively.

Take MLTNASGHA: the Kd in assay [1] (setting [37]) is 0.2 µM; in assay [2] (setting [37]), 0.438 µM; in assay [17] (setting [37]) it was at least 20 µM; in assay [3] (setting [37]), at least 20 µM; in [18] (setting [37]) it was at least 20 µM; in [4] (setting [37]), at least 20 µM. The dissociation constant (Kd) in assay [19] (setting [37]), in [6] (setting [37]), in assay [7] (setting [37]), in [20], in assay [8] (setting [37]) and in assay [9] (setting [37]) was at least 20 µM in each case. Also, the Kd in assay [10] (setting [37]), in assay [11] (setting [37]), in assay [12] (setting [37]) and in [13] (setting [37]) was at least 20 µM each time.

Turning to TELPLAYER, the Kd in assay [1] (setting [38]), in [21] (setting [38]), in [2] (setting [38]), in [17] (setting [38]), in assay [3] (setting [38]) and in [18] (setting [38]) was at least 20 µM throughout. Also, the Kd in assay [4] (setting [38]) is at least 20 µM; in assay [7] (setting [38]) it was at least 20 µM; in assay [8] (setting [38]), 0.395 µM; in assay [9] (setting [38]), at least 20 µM; in [10] (setting [38]), at least 20 µM; in assay [11] (setting [38]), at least 20 µM. The Kd in assay [12] (setting [38]) and in assay [13] (setting [38]) was at least 20 µM in each case.

Sequence RLREALCAV showed a Kd in assay [14] (source organism: Mycobacterium tuberculosis str. Haarlem) of at least 20 µM.

Consider EKLKSLYNTI, for which the Kd in assay [21] (setting [39]) amounted to 0.0239 µM; in assay [22] it was 3.71 µM; in [23], 0.072 µM; in [24] it was 4.47 µM; in [10] (setting [39]) it was 0.747 µM.

As to LPLNRAYPL, the Kd is 0.0063 µM in assay [15] (setting [35]); 0.06 µM in assay [25]; at most 0.0001 µM in assay [16] (setting [35]); 0.0093 µM in assay [10] (setting [35]); 2.57 µM in assay [12] (setting [35]).

VFTSRIQVI: the Kd in assay [26], in [27], in assay [28], in assay [29], in assay [30] and in assay [31] was at least 20 µM each time. For the same sequence, the Kd was at least 20 µM in assay [32]; at least 20 µM in assay [1] (setting [40]); 0.0246 µM in assay [18] (setting [40]); at least 20 µM in assay [4] (setting [40]); at least 20 µM in [6] (setting [40]); at least 20 µM in assay [8] (setting [40]). In addition, the Kd in assay [9] (setting [40]), in assay [10] (setting [40]), in assay [11] (setting [40]), in assay [12] (setting [40]) and in assay [13] (setting [40]) was at least 20 µM throughout.

For the sequence KFVAGAMNI, the Kd in assay [33] was determined as 0.0117 µM.

As for RIRFVQNAL, the Kd in assay [15] (source organism: Influenza A virus (A/Denver/1957(H1N1))) came out at 0.0199 µM.

Consider TLPGCLIIL, for which the Kd in assay [34] was 4.65 µM; in [3] (setting [41]), at least 20 µM; in assay [4] (setting [41]) it was at least 20 µM; in [7] (setting [41]), at least 20 µM; in assay [8] (setting [41]), at least 20 µM; in assay [9] (setting [41]), at least 20 µM. The Kd in assay [10] (setting [41]), in assay [11] (setting [41]), in [12] (setting [41]) and in [13] (setting [41]) was at least 20 µM each time.

With KDGTLFYCY, the Kd was at least 20 µM in assay [21] (setting [42]); at least 20 µM in assay [2] (setting [42]); at least 20 µM in assay [17] (setting [42]); at least 20 µM in assay [3] (setting [42]); at least 20 µM in assay [4] (setting [42]); 0.106 µM in assay [19] (setting [42]). In addition, the Kd in [5] (setting [42]), in assay [6] (setting [42]), in assay [7] (setting [42]), in assay [9] (setting [42]), in assay [10] (setting [42]) and in assay [11] (setting [42]) was at least 20 µM each time. The Kd in assay [12] (setting [42]) and in [13] (setting [42]) was at least 20 µM in each case.
